Assay [1] concerns the target T1, mutant feline IL-31 11E12 protein (Feline_IL31_11E12_mutant) (feline).
T1 construct: also called feline 11E12 mutant; 11E12 IL-31 mutant
T1 chain: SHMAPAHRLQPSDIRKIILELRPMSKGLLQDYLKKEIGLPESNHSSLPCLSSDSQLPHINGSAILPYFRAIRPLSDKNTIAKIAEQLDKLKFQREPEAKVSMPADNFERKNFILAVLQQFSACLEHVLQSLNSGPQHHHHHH
Nature of the assay: SPR (Biacore), IL-31 surface, single antibody concentration. As to the method: (§1) For the indirect ELISA method, antibody binding to wildtype and feline IL-31 15H05 mutant proteins was assessed. All nine canine monoclonal antibodies (ZIL1, ZIL8, ZIL8, ZIL11, ZIL69, ZIL94, ZIL154, ZIL159, and ZIL171) were capable of binding to wildtype feline IL-31 and binding was impacted by mutations in the mAb 15H05 epitope region confirming the correct binding phenotype determined during the initial screening used to identify them. In comparison, the 11E12 antibody bound to the wild-type feline IL-31 and its binding was not impacted by the mutations in the 15H05 epitope region as evidenced by the data in FIG. 4. To confirm binding, biacore analysis was performed using canine, feline, equine, human, feline 15H05 mutant, and feline 11E12 mutant IL-31 proteins as surfaces and a single test concentration of antibody. Similar to ELISA observations, all antibodies tested bound to wildtype feline IL-31. In agreement with the data described above in this section, mouse antibodies 11E12 and 15H05 both bound to canine and feline IL-31 surfaces. Three additional antibodies where shown to have this dual binding property, ZIL69 (partial canine binding), ZIL94, and ZIL159. From this group of nine fully canine antibodies, only ZIL1 and ZIL9 cross-reacted with equine IL-31. Of note, antibody 15H05 was the only one of all assayed herein that bound to canine, feline, and equine IL-31 indicating some level of epitope conservation across the three species. In contrast, none of the antibodies described herein bound to human IL-31. Additional biacore surfaces were used to verify ELISA observations showing differential binding of antibodies to wildtype feline IL-31 and two proteins with mutations in the 15H05 (15H05 mutant) or 11E12 (11E12 mutant) epitopes.

For assay [2], the target named is T2, equine IL-31 protein (Equine_IL31) (equine).
T2 construct: Recombinant equine IL-31
T2 chain: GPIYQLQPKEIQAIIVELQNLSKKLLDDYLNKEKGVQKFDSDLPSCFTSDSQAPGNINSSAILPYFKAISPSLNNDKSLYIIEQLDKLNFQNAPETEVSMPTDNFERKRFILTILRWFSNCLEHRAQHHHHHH
The assay is described as above. As to the method:
as §1

The target of assay [3] is T3, mutant feline IL-31 15H05 protein (Feline_IL31_15H05_mutant) (feline).
T3 sequence: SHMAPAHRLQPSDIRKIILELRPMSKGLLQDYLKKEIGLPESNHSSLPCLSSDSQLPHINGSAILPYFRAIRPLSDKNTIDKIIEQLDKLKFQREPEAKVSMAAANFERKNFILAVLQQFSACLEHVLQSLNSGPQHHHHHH
In words: indirect ELISA, IL-31 protein coated.

The target in assay [4] is T4, wildtype feline IL-31 protein (Feline_IL31_wildtype) (feline).
T4 construct: Full length feline IL-31 with C-terminal His tag, secreted from ExpiCHO cells; also called fIL-31
T4 chain: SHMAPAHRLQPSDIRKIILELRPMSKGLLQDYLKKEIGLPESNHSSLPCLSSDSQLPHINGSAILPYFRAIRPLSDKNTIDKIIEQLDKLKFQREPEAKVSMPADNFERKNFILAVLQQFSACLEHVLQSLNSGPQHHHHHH
Nature of the assay: indirect ELISA, IL-31 protein coated. The method, then: as §1, with “epitopes. […] In agreement with the ELISA results, all fully canine antibodies were impacted by the 15H05 mutation with the exception of ZIL94, ZIL154, and ZIL171 (partially affected). Differing results can be attributed to differences in the two assay methodologies.” for “epitopes.”

For a further assay, the target named is T5, human IL-31 (human, UniProt Q6EBC2 24-164).
T5 sequence: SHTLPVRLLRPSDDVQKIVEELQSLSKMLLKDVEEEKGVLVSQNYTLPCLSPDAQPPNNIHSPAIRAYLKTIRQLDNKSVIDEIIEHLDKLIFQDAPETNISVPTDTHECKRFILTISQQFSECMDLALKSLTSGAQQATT
Nature of the assay: SPR (Biacore), IL-31 surface, single antibody concentration. The method, then:
as §1

In assay [5] the target is T6, mutant feline IL-31 15H05 protein (Feline_IL31_15H05_mutant) (feline).
T6 construct: also called feline 15H05 mutant; 15H05 IL-31 mutant
T6 chain: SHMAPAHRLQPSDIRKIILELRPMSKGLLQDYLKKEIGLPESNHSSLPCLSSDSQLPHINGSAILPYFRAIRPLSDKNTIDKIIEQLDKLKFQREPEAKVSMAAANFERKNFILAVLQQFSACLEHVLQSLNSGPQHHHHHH
In words: indirect ELISA, IL-31 protein coated. The method, then: as §1, with “epitopes. […] In agreement with the ELISA results, all fully canine antibodies were impacted by the 15H05 mutation with the exception of ZIL94, ZIL154, and ZIL171 (partially affected). Differing results can be attributed to differences in the two assay methodologies.” for “epitopes.”

Assay [6] has as its target T2, equine IL-31 protein (Equine_IL31). In words: ELISA screening of hybridoma supernatants on equine IL-31.
Assay [7] addresses T4, wildtype feline IL-31 protein …. In words: cell-based or functional assay.
Assay [8] has the same target. In words: cell-based or functional assay.
Assay [9] has the same target. In words: SPR (Biacore), feline IL-31 (SEQ ID NO 157). As to the method:
The affinity with which candidate mAbs bind canine and feline IL-31 was determined using surface plasmon resonance (SPR) on a Biacore system (Biocore Life Sciences (GE Healthcare), Uppsala, Sweden). To avoid affinity differences associated with differential surface preparation that can occur when immobilizing antibodies to surfaces; a strategy was employed where IL-31 was directly conjugated to the surface. Immobilization was obtained by amine coupling 5 μg/mL IL-31 using N-hydroxysuccinimide (NHS)/1-Ethyl-3-(3-dimethylaminopropyl) carbodiimide (EDC) chemistry. Chips were quenched with ethanolamine and the affinity with which all candidate mAbs bound to the immobilized IL-31 was evaluated. All curves were fit to a 1:1 model. […] Results for affinity measurements are described herein.
Cellular potency was assessed using feline IL-31 to stimulate pSTAT3 signalling in FCFW4 cells. IC₅₀ vlaues were calculated for each antibody as described previously in this application. […] It is worth noting that both antibodies are considered potent with IC₅₀s in the range of those antibodies previously described herein from the 15H05 lineage (FIG. 3).

Like-named read-outs stand apart in the source and are kept apart here.

B1: ZIL159 (recombinant fully canine antibody) (antibody, V domains shown)
VH: EVQLVESGGDLVKPAGSLRLSCVASGFTFSSYVMTWVRQAPGKGLQWVAGINSEGSRTAYADAVKGRFTISRDNAKNTLYLQIDSLRAEDTAIYYCATGDIVATGTSYWGQGTLVTVSS
VL: SNVLTQPPSVSVSLGQTATISCSGETLNRFYTQWFQQKAGQAPVLVIYKDTERPSGIPDRFSGSSSGNIHTLTISGARAEDEAAYYCKSAVSIDVGVFGGGTHLTVFR
notes: also called CAN-ZIL159
Turning to B1, the binding result in assay [1] and in [2] was “no binding” each time. The ELISA OD in assay [3] stood at 1.31 OD; in assay [4] it was 1.6 OD.

B2: ZIL154 (recombinant fully canine antibody) (antibody, V domains shown)
VH: EVHLVESGGDLVKPWGSLRLSCVASGFTFSDRGMSWVRQSPGKGLQWVAYIRYDGSRTDYADAVEGRFTISRDNAKNTLYLQMNSLRAEDTAVYYCARWDGSSFDYWGQGTLVTVSS
VL: DIVVTQTPLSLSVSPGETASFSCKASQSLLHSDGNTYLDWFRQKPGQSPQRLIYKVSNRDPGVPDRFSGSGSGTDFTLRISGVEADDAGLYYCMQAIHFPLTFGAGTKVELKR
notes: Fully canine IgG; also called CAN-ZIL154
As to B2, the binding result in [1] is “binds”; with human IL-31, “no binding”; in assay [2], “no binding”. Moreover, the “ELISA OD” value is 1.62 OD in assay [4] and 1.38 OD in assay [5].

B3: mouse anti equine IL-31 antibody 04H07 (antibody, V domains shown)
VH: QVQLQQPGAELVRPGASVKLSCKASGYTFTSYWMNWAKQRPGQGLEWIGMIDPSDSEIHYNQVFKDKATLTVDKSSSTAYMQLSSLTSEDSAVYYCARQDIVTTVDYWGQGTTLTVSS
VL: DIVMSQSPSSLAVSVGEKVTMSCKSSQSLLYSINQKNHLAWFQQKPGQSPKLLIYWASTRESGVPARFTGSGSGTDFTLTISSVKTEDLAVYYCQQGYTYPFTFGSGTKLEIK
notes: Mouse hybridoma antibody; also called Mu_04H07
B3: the binding result in [6] was “binds”.

B4: mouse anti equine IL-31 antibody 06A09 (antibody, V domains shown)
VH: QVQLQQPGAELVRPGASVKLSCKAYGYTFTSYWMNWVKQRPGQGLEWIGMIDPSDSETHYNQIFRDKATLTIDKSSSTAYMQLSSLTSEDSAVYFCARQDIVTTVDYWGQGTTLTVSS
VL: DIVMSQSPSSLAVSVGEKVTMSCKSSQSLLYSINQKNFLAWYQQKPGQSPKLLIYWASTRESGVPDRFTGSGSGTDFTLTISSVKSEDLAVYYCQQHYGYPFTFGSGTKLEIK
notes: Mouse hybridoma antibody; also called Mu_06A09
Consider B4, for which, in assay [6], the binding result was “binds”.

B5: ZTS-5864 (antibody, V domains shown)
VH: DVQLVESGGDLVKPGGSLRLTCVASGFTFSDYAMSWVRQAPGKGLQWVAGIDSVGSGTSYADSVKGRFTISRDNAKNTLYLQMNSLKTEDTATYYCASGFPGSFEHWGQGALVTVSS
VL: QSVLTQPSSVSGTLGQRITISCTGSSSNIGSGYVGWYQQVPGMGPKTVIYYNSDRPSGVPDRFSGSKSGSSGTLTITGLQAEDEADYYCSVYDRTFNAVFGGGTHLTVLG
notes: see recheck
For the molecule B5, in assay [7], the “IC50, inhibition of feline IL-31 induced pSTAT3 in feline FCWF4 cells” value was 3.73 µg/ml. Also, in assay [8], the “IC50, feline IL-31 stimulated pSTAT3 signalling in FCFW4 cells, relative to ZTS-5865” value is roughly 3 fold. In [9], binding was characterised by a dissociation constant (Kd) of 0.571 nM and the on-rate (kon) was determined as 108000 M⁻¹ s⁻¹.

B6: ZTS-5865 (antibody, V domains shown)
VH: DVQLVESGGDLVKPGGSLRLTCVASGFTFSDYAMNWVRQAPGKGLQWVAGIDSVGSGTSYADSVKGRFTISRDNAKNTLYLQMSGLKTEDTATYYCASGFPGSFEHWGQGTLVTVSS
VL: QSVLTQPSSVSGTLGQRITISCTGSSSNIGSGYVGWYQQVPGMGPKTVIYYNSDRPSGVPDRFSGSKSGSSGTLTITGLQAEDEADYYCSVYDRTFNAVFGGGTHLTVLG
notes: see recheck
Regarding B6, the “IC50, inhibition of feline IL-31 induced pSTAT3 in feline FCWF4 cells” value in assay [7] came to 9.08 µg/ml. In assay [9], this molecule returned an equilibrium dissociation constant (Kd) of 2.12 nM and an association rate constant (kon) of 76200 M⁻¹ s⁻¹.

The values are drawn from patent publication US20250136677A1 (ZOETIS SERVICES, published 2025).
